# Laboratory results reported in patent US20250051435A1 (INVETX, published 2025).
# T1: feline IL-5 (Kingfisher Biotech; RP1152F) (feline, UniProt O77515 20-134)
# T1 construct: Bought recombinant protein; also called fIL-5; fIL5
# T1 sequence (looked up): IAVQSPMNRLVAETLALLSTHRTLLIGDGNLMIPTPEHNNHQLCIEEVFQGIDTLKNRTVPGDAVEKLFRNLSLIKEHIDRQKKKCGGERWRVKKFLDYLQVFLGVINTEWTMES
# Molecular target: T1, feline IL-5 (Kingfisher Biotech; …)
# Assay: SPR Biacore T200, IgG captured on goat anti-feline IgG CM5 chip, feline IL-5 as analyte
# Description: Asparagine deamidation for asparagine residues and oxidation at methionine residues can negatively impact the potency and the stability of an antibody (Xu et al., 2019. MABS, 11:239-264). These post-translational modifications can be particularly problematic when they reside in the CDRs. […] DNA constructs were synthesized (GeneArt) encoding the MtxB clone with substitutions to eliminate the potential sequence liabilities. For the NG site in LCDR3, the Asn (position 106) was substituted with either a Gln or a Ser and for the Met in HCDR3 (position 115), a Len was substituted. The DNA constructs with the light chain variants were fused to the feline kappa constant domain. These DNA constructs were subcloned into the pcDNA3.4 expression vector (ThermoFisher) and expressed with the ExpiCHO system (ThermoFisher). The antibodies were purified with mAbSelect SuRe chromatography (Cytiva) and buffer exchanged into 20 mM sodium acetate, 136 mM sodium chloride, pH 5.5. The variants were tested in an SPR experiment using a Biacore T200 instrument to measure their affinity to feline IL-5 (Kingfisher Biotech; RP1152F). Goat anti-feline IgG was immobilized onto a Series S CM5 sensor chip (Cytiva) and the original MtxB clone and the variants containing the amino acid substitutions were captured on the chip at 5 μg/ml.
Binder,Kd,koff,kon
"MtxB N106Q (LCDR3) variant (antibody, V domains shown, Feline IgG with feline kappa constant domain) VH: DVQLVESGGDLVKPGGSLRLTCVGSGFTFSNYAMSWVRQAPGEGLQWVATIGSGGHYTYHPDSVKGRFTISRDNAKNTLYLQMNSLQTEDTASYYCTRETDGYDGMDYWGQGTLVTVSS VL: DIVMTQTPLSLSVTPGEPASISCRASQSISDYLYWYLQKPGQSPRRLIYYASQSISGVPDRFSGSGSGTDFTLRISRVEADDVGVYYCQQGHSFPYTFGPGTKLEIK",0.56 nM,8.6e-05 s⁻¹,150000 M⁻¹ s⁻¹
"MtxB N106S (LCDR3) variant (antibody, V domains shown, Feline IgG with feline kappa constant domain) VH: DVQLVESGGDLVKPGGSLRLTCVGSGFTFSNYAMSWVRQAPGEGLQWVATIGSGGHYTYHPDSVKGRFTISRDNAKNTLYLQMNSLQTEDTASYYCTRETDGYDGMDYWGQGTLVTVSS VL: DIVMTQTPLSLSVTPGEPASISCRASQSISDYLYWYLQKPGQSPRRLIYYASQSISGVPDRFSGSGSGTDFTLRISRVEADDVGVYYCQSGHSFPYTFGPGTKLEIK",3.6 nM,0.00027 s⁻¹,75000 M⁻¹ s⁻¹

# Molecular target: T1, feline IL-5 (Kingfisher Biotech; …)
# Assay: ELISA, Fab culture supernatant on plate-coated feline IL-5, anti-feline Fab'2-HRP detection
# Description: Fragments containing the pre-selected CDR pools from these libraries were randomly paired by overlap PCR to create a new library incorporating mutations throughout all targeted CDRs. The phage propagated following round 4 of selection were used for PCR amplication of LCDR2, LCDR3 and HCDR3. The PCR-amplified fragment containing the light chain and the heavy chain were ligated into a phagemid vector and transformed into E. coli. The number of transformants was approximately 2E+10. Library plasmid DNA was purified using a midi-prep purification method. Ten pg of the library plasmid DNA was transformed into E. coli for growth and propagation of the Fab phage. After overnight phage production, phage was precipitated from the culture supernatant and resuspended in blocking buffer (1% BSA/PBS). The phage were treated at 58° C. for 10 minutes to remove unstable clones prior to the selections. The input phage was incubated for 30 minutes in a blocked ELISA plate coated with feline IL-5. The ELISA plate was washed with PBS, pH 7.4 followed by acid elution of the bound phage. The output phage was then used to infect E. coli for propagation for the next round of selection. For rounds 1, 2, 3 and 4, the ELISA plates were coated with 10 μg/ml, 8 μg/ml, 5 μg/ml and 1 μg/ml, respectively. The number of washes after each round were 3, 5, 10 and 10 for rounds 1, 2, 3 and 4, respectively. Ninety-three clones from the round 4 output were grown overnight for Fab production and tested for binding to feline IL-5 in an ELISA format. For this assay, supernatants from the overnight cultures were incubated in Immulon 4 HBX high-binding plate that was coated with 10 μg/ml feline IL-5 (Kingfisher Biotech; Cat #RP1152F) and blocked with 1% bovine serum albumin in phosphate buffered saline (PBS), pH 7.4. The controls added included the MtxB clone and clone 1H3-C6 which was the top affinity clone from the first stage A1 step. The Fab binding to the feline IL-5 was detected with anti-feline Fab′₂-HRP conjugate.
# The results are shown in Table 8A which compares relative Fab binding affinity to feline IL-5 by Fabs disclosed herein. IL-5 binding was detected with anti-feline Fab′₂-HRP conjugate. Differences in CDR amino acids compared to the MtxB are underlined. The data in the last column are absorbance following addition of substrate to detect the HRP conjugate.
row,Binder,fIL5 Fab (ELISA absorbance)
1,"1H3-C6 Fab (MtxB HCDR3 variant) (Fab, V domains shown, Fab from the MtxB HCDR3 library; the entry named is the parent, the changed CDR is told under detail) VH: DVQLVESGGDLVKPGGSLRLTCVGSGFTFSNYAMSWVRQAPGEGLQWVATIGSGGHYTYHPDSVKGRFTISRDNAKNTLYLQMNSLQTEDTASYYCTRETDGYGPMDVWGQGTLVTVSS VL: DIVMTQTPLSLSVTPGEPASISCRASQSISDYLYWYLQKPGQSPRRLIYYASQSISGVPDRFSGSGSGTDFTLRISRVEADDVGVYYCQNGHSFPYTFGPGTKLEIK",0.1 absorbance
2,"MtxB Fab (Fab, V domains shown, Fab made in E. coli from the phagemid: heavy chain variable domain, CH1 and partial hinge; light chain of MtxB; also called Matrix B; original MtxB Fab) VH: DVQLVESGGDLVKPGGSLRLTCVGSGFTFSNYAMSWVRQAPGEGLQWVATIGSGGHYTYHPDSVKGRFTISRDNAKNTLYLQMNSLQTEDTASYYCTRETDGYDGMDYWGQGTLVTVSS VL: DIVMTQTPLSLSVTPGEPASISCRASQSISDYLYWYLQKPGQSPRRLIYYASQSISGVPDRFSGSGSGTDFTLRISRVEADDVGVYYCQNGHSFPYTFGPGTKLEIK",0.054 absorbance
3,"LxH3-G7 Fab (affinity matured MtxB) (Fab, V domains shown, Fab from the Stage B library on MtxB; the entries named are the parent, the changed regions are told under detail) VH: DVQLVESGGDLVKPGGSLRLTCVGSGFTFSNYAMSWVRQAPGEGLQWVATIGSGGHYTYHPDSVKGRFTISRDNAKNTLYLQMNSLQTEDTASYYCTRETDGYGPILDWGQGTLVTVSS VL: DIVMTQTPLSLSVTPGEPASISCRASQSISDYLYWYLQKPGQSPRLVFNHASPVPSGVPDRFSGSGSGTDFTLRISRVEADDVGVYYCQQGIRFPYTFGPGTKLEIKR",0.672 absorbance
4,"LxH3-G10 Fab (affinity matured MtxB) (Fab, V domains shown, Fab from the Stage B library on MtxB; the entries named are the parent, the changed regions are told under detail) VH: DVQLVESGGDLVKPGGSLRLTCVGSGFTFSNYAMSWVRQAPGEGLQWVATIGSGGHYTYHPDSVKGRFTISRDNAKNTLYLQMNSLQTEDTASYYCTRETDGYGPILDWGQGTLVTVSS VL: DIVMTQTPLSLSVTPGEPASISCRASQSISDYLYWYLQKPGQSPRRIIFTGSQRNSGVPDRFSGSGSGTDFTLRISRVEADDVGVYYCQQGAFFPYTFGPGTKLEIKR",0.877 absorbance

# Molecular target: T1, feline IL-5 (Kingfisher Biotech; …)
# Assay: ELISA on plate-coated feline IL-5, Fab at 65 ng/ml dimerized with goat anti-feline IgG F(ab')2, anti-goat-HRP detection
row,Binder,"Normalized fIL-5 ELISA value, 65 ng/ml Fab"
1,"1H3-C6 Fab (MtxB HCDR3 variant) (Fab, V domains shown, Fab from the MtxB HCDR3 library; the entry named is the parent, the changed CDR is told under detail) VH: DVQLVESGGDLVKPGGSLRLTCVGSGFTFSNYAMSWVRQAPGEGLQWVATIGSGGHYTYHPDSVKGRFTISRDNAKNTLYLQMNSLQTEDTASYYCTRETDGYGPMDVWGQGTLVTVSS VL: DIVMTQTPLSLSVTPGEPASISCRASQSISDYLYWYLQKPGQSPRRLIYYASQSISGVPDRFSGSGSGTDFTLRISRVEADDVGVYYCQNGHSFPYTFGPGTKLEIK",0.967
2,"MtxB Fab (Fab, V domains shown, Fab made in E. coli from the phagemid: heavy chain variable domain, CH1 and partial hinge; light chain of MtxB; also called Matrix B; original MtxB Fab) VH: DVQLVESGGDLVKPGGSLRLTCVGSGFTFSNYAMSWVRQAPGEGLQWVATIGSGGHYTYHPDSVKGRFTISRDNAKNTLYLQMNSLQTEDTASYYCTRETDGYDGMDYWGQGTLVTVSS VL: DIVMTQTPLSLSVTPGEPASISCRASQSISDYLYWYLQKPGQSPRRLIYYASQSISGVPDRFSGSGSGTDFTLRISRVEADDVGVYYCQNGHSFPYTFGPGTKLEIK",0.165
3,"1L2-H7 Fab (MtxB LCDR2 variant) (Fab, V domains shown, Fab from the MtxB LCDR2 library; the entry named is the parent, the changed CDR is told under detail) VH: DVQLVESGGDLVKPGGSLRLTCVGSGFTFSNYAMSWVRQAPGEGLQWVATIGSGGHYTYHPDSVKGRFTISRDNAKNTLYLQMNSLQTEDTASYYCTRETDGYDGMDYWGQGTLVTVSS VL: DIVMTQTPLSLSVTPGEPASISCRASQSISDYLYWYLQKPGQSPRRVFFTVSGGVSGVPDRFSGSGSGTDFTLRISRVEADDVGVYYCQNGHSFPYTFGPGTKLEIK",0.283
4,"2L2-G12 Fab (MtxB LCDR2 variant) (Fab, V domains shown, Fab from the MtxB LCDR2 library) VH: DVQLVESGGDLVKPGGSLRLTCVGSGFTFSNYAMSWVRQAPGEGLQWVATIGSGGHYTYHPDSVKGRFTISRDNAKNTLYLQMNSLQTEDTASYYCTRETDGYDGMDYWGQGTLVTVSS VL: DIVMTQTPLSLSVTPGEPASISCRASQSISDYLYWYLQKPGQSPRRVFFTPSDSASGVPDRFSGSGSGTDFTLRISRVEADDVGVYYCQNGHSFPYTFGPGTKLEIK",0.251
5,"1L2-D12 Fab (MtxB LCDR2 variant) (Fab, V domains shown, Fab from the MtxB LCDR2 library; the entry named is the parent, the changed CDR is told under detail) VH: DVQLVESGGDLVKPGGSLRLTCVGSGFTFSNYAMSWVRQAPGEGLQWVATIGSGGHYTYHPDSVKGRFTISRDNAKNTLYLQMNSLQTEDTASYYCTRETDGYDGMDYWGQGTLVTVSS VL: DIVMTQTPLSLSVTPGEPASISCRASQSISDYLYWYLQKPGQSPRRIFFGYSGTKSGVPDRFSGSGSGTDFTLRISRVEADDVGVYYCQNGHSFPYTFGPGTKLEIK",0.303
6,"1L2-E7 Fab (MtxB LCDR2 variant) (Fab, V domains shown, Fab from the MtxB LCDR2 library; the entry named is the parent, the changed CDR is told under detail) VH: DVQLVESGGDLVKPGGSLRLTCVGSGFTFSNYAMSWVRQAPGEGLQWVATIGSGGHYTYHPDSVKGRFTISRDNAKNTLYLQMNSLQTEDTASYYCTRETDGYDGMDYWGQGTLVTVSS VL: DIVMTQTPLSLSVTPGEPASISCRASQSISDYLYWYLQKPGQSPRRIFFASSLYDSGVPDRFSGSGSGTDFTLRISRVEADDVGVYYCQNGHSFPYTFGPGTKLEIK",0.366
7,"1L2-D1 Fab (MtxB LCDR2 variant) (Fab, V domains shown, Fab from the MtxB LCDR2 library; the entry named is the parent, the changed CDR is told under detail) VH: DVQLVESGGDLVKPGGSLRLTCVGSGFTFSNYAMSWVRQAPGEGLQWVATIGSGGHYTYHPDSVKGRFTISRDNAKNTLYLQMNSLQTEDTASYYCTRETDGYDGMDYWGQGTLVTVSS VL: DIVMTQTPLSLSVTPGEPASISCRASQSISDYLYWYLQKPGQSPRRIFFTESQRASGVPDRFSGSGSGTDFTLRISRVEADDVGVYYCQNGHSFPYTFGPGTKLEIK",0.492
8,"1L2a-H2 Fab (MtxB LCDR2 variant) (Fab, V domains shown, Fab from the MtxB LCDR2 library; the entry named is the parent, the changed CDR is told under detail) VH: DVQLVESGGDLVKPGGSLRLTCVGSGFTFSNYAMSWVRQAPGEGLQWVATIGSGGHYTYHPDSVKGRFTISRDNAKNTLYLQMNSLQTEDTASYYCTRETDGYDGMDYWGQGTLVTVSS VL: DIVMTQTPLSLSVTPGEPASISCRASQSISDYLYWYLQKPGQSPRRVFYTDSAEVSGVPDRFSGSGSGTDFTLRISRVEADDVGVYYCQNGHSFPYTFGPGTKLEIK",0.559
